tested on: Escherichia coli TOP10; test: shrunken log2 fold change of peptide-encoding DNA abundance (4.5 h post-induction vs induction); higher = less antimicrobial activity (less host growth inhibition); settings: time post-induction: 4.5 h; library: site-saturation at positions 5, 18, 19, 20
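Note: peptides expressed intracellularly from a pBAD plasmid library in pooled LB shake-flask culture, induced with 0.3% L-arabinose, DNA abundance read by NGS, three biological replicates, DESeq2 with apeglm shrinkage.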

Sequence	shrunken log2 fold change
RRIRYRPPRLPRPRPRPMMAPRP	-0.146
RRIRNRPPRLPRPRPRPCVRPRP	-0.109
RRIRSRPPRLPRPRPRPPQCPRP	0.115
RRIRNRPPRLPRPRPRPAINPRP	0.0991
RRIRPRPPRLPRPRPRPTHRPRP	0.223
RRIRSRPPRLPRPRPRPLIVPRP	-0.206
RRIRRRPPRLPRPRPRPQFLPRP	-0.0792
RRIRWRPPRLPRPRPRPMDSPRP	-0.198
RRIRKRPPRLPRPRPRPQVEPRP	0.248
RRIRSRPPRLPRPRPRPEMGPRP	0.128
RRIRFRPPRLPRPRPRPWWCPRP	-0.0371
RRIRHRPPRLPRPRPRPAFDPRP	-0.00345
RRIRPRPPRLPRPRPRPKEHPRP	-0.202
RRIRRRPPRLPRPRPRPGTHPRP	0.243
RRIRERPPRLPRPRPRPKGWPRP	0.493
RRIRVRPPRLPRPRPRPVDAPRP	0.485
RRIRKRPPRLPRPRPRPQRKPRP	0.71
RRIRGRPPRLPRPRPRPLKSPRP	0.426
RRIRFRPPRLPRPRPRPYTYPRP	-0.141
RRIRLRPPRLPRPRPRPAIVPRP	0.0701
RRIRERPPRLPRPRPRPNVMPRP	-0.403
RRIRWRPPRLPRPRPRPFPRPRP	0.111
RRIRSRPPRLPRPRPRPQCEPRP	0.00747
RRIRRRPPRLPRPRPRPISRPRP	-0.0551
RRIRVRPPRLPRPRPRPELNPRP	-0.0839

Sequence	shrunken log2 fold change
RRIRHRPPRLPRPRPRPKDCPRP	0.00375
RRIRQRPPRLPRPRPRPKCLPRP	0.0772
RRIRGRPPRLPRPRPRPEWTPRP	1.27
RRIRQRPPRLPRPRPRPQIPPRP	-0.214
RRIRFRPPRLPRPRPRPTMWPRP	0.0084
RRIRHRPPRLPRPRPRPELSPRP	0.252
RRIRERPPRLPRPRPRPFRNPRP	-0.105
RRIRVRPPRLPRPRPRPSEEPRP	0.00143
RRIRNRPPRLPRPRPRPYFKPRP	-0.363
RRIRDRPPRLPRPRPRPEWWPRP	-0.00197
RRIRRRPPRLPRPRPRPNNDPRP	-0.358
RRIRDRPPRLPRPRPRPQCMPRP	-0.0894
RRIRERPPRLPRPRPRPPKSPRP	0.21
RRIRGRPPRLPRPRPRPLRIPRP	0.175
RRIRTRPPRLPRPRPRPQTNPRP	-0.199
RRIRMRPPRLPRPRPRPVESPRP	0.00581
RRIRNRPPRLPRPRPRPHHGPRP	-0.00683
RRIRDRPPRLPRPRPRPVFYPRP	-0.301
RRIRQRPPRLPRPRPRPSNVPRP	-0.0428
RRIRHRPPRLPRPRPRPNPMPRP	-0.00731
RRIRTRPPRLPRPRPRPGMHPRP	0.0032
RRIRFRPPRLPRPRPRPYFDPRP	-0.489
RRIRGRPPRLPRPRPRPGTHPRP	0.508
RRIRFRPPRLPRPRPRPWSIPRP	-0.0103
RRIRFRPPRLPRPRPRPTNVPRP	-0.254

Sequence	shrunken log2 fold change
RRIRCRPPRLPRPRPRPMNFPRP	-0.383
RRIRKRPPRLPRPRPRPVDRPRP	0.248
RRIRHRPPRLPRPRPRPTERPRP	0.18
RRIRQRPPRLPRPRPRPATQPRP	0.176
RRIRHRPPRLPRPRPRPCETPRP	-0.332
RRIRNRPPRLPRPRPRPLRRPRP	2.43
RRIRRRPPRLPRPRPRPSRGPRP	0.432
RRIRRRPPRLPRPRPRPIFDPRP	0.369
RRIRIRPPRLPRPRPRPRWYPRP	-0.452
RRIRVRPPRLPRPRPRPESFPRP	-0.0103
RRIRHRPPRLPRPRPRPTRSPRP	-0.0409
RRIRHRPPRLPRPRPRPANVPRP	-0.192
RRIRWRPPRLPRPRPRPGTRPRP	0.377
RRIRFRPPRLPRPRPRPKRTPRP	0.0846
RRIRSRPPRLPRPRPRPEWHPRP	0.0472
RRIRARPPRLPRPRPRPANKPRP	0.0442
RRIRARPPRLPRPRPRPMEVPRP	-0.0122
RRIRMRPPRLPRPRPRPCDFPRP	-0.121
RRIRFRPPRLPRPRPRPSYAPRP	-0.116
RRIRYRPPRLPRPRPRPNQVPRP	-0.0141
RRIRHRPPRLPRPRPRPNNDPRP	-0.727
RRIRLRPPRLPRPRPRPQVKPRP	-0.319
RRIRTRPPRLPRPRPRPKYHPRP	-0.243
RRIRTRPPRLPRPRPRPGTEPRP	0.0787
RRIRDRPPRLPRPRPRPHEKPRP	-0.0396

Sequence	shrunken log2 fold change
RRIRFRPPRLPRPRPRPCRLPRP	-0.209
RRIRMRPPRLPRPRPRPWKNPRP	0.0328
RRIRKRPPRLPRPRPRPCKYPRP	0.0409
RRIRMRPPRLPRPRPRPAWEPRP	0.655
RRIRKRPPRLPRPRPRPKCMPRP	0.15
RRIRMRPPRLPRPRPRPSAAPRP	2.7
RRIRQRPPRLPRPRPRPKNYPRP	-0.216
RRIRNRPPRLPRPRPRPHNNPRP	-1.05
RRIRERPPRLPRPRPRPEKRPRP	-0.0657
RRIRRRPPRLPRPRPRPSYTPRP	-0.227
RRIRLRPPRLPRPRPRPHTWPRP	-0.202
RRIRHRPPRLPRPRPRPWINPRP	-0.616
RRIRYRPPRLPRPRPRPPRYPRP	-0.226
RRIRNRPPRLPRPRPRPFPYPRP	-0.4
RRIRHRPPRLPRPRPRPMKIPRP	-0.0248
RRIRTRPPRLPRPRPRPNKDPRP	-0.54
RRIRDRPPRLPRPRPRPQDSPRP	0.00388
RRIRTRPPRLPRPRPRPCAYPRP	-0.164
RRIRTRPPRLPRPRPRPTEFPRP	-0.0268
RRIRYRPPRLPRPRPRPITIPRP	-0.149
RRIRKRPPRLPRPRPRPTYWPRP	0.141
RRIRHRPPRLPRPRPRPRPWPRP	0.0732
RRIRHRPPRLPRPRPRPFLSPRP	-0.187
RRIRNRPPRLPRPRPRPQDHPRP	-0.33
RRIRMRPPRLPRPRPRPGVRPRP	1.42

Sequence	shrunken log2 fold change
RRIRLRPPRLPRPRPRPSNGPRP	-0.00256
RRIRARPPRLPRPRPRPPIPPRP	0.319
RRIRSRPPRLPRPRPRPQFDPRP	-0.00423
RRIRGRPPRLPRPRPRPERKPRP	0.92
RRIRGRPPRLPRPRPRPVFKPRP	0.193
RRIRVRPPRLPRPRPRPSARPRP	0.275
RRIRERPPRLPRPRPRPVDYPRP	0.0839
RRIRSRPPRLPRPRPRPDEVPRP	0.0037
RRIRNRPPRLPRPRPRPPMKPRP	-0.216
RRIRHRPPRLPRPRPRPQNGPRP	-0.535
RRIRNRPPRLPRPRPRPTWTPRP	0.201
RRIRNRPPRLPRPRPRPSNKPRP	-0.259
RRIRIRPPRLPRPRPRPGNPPRP	-0.366
RRIRLRPPRLPRPRPRPLRGPRP	1.11
RRIRYRPPRLPRPRPRPDDKPRP	-1.56
RRIRPRPPRLPRPRPRPVENPRP	0.243
RRIRNRPPRLPRPRPRPPEMPRP	0.0979
RRIRMRPPRLPRPRPRPMMAPRP	1.8
RRIRDRPPRLPRPRPRPVKRPRP	0.0129
RRIRTRPPRLPRPRPRPVLEPRP	0.179
RRIRRRPPRLPRPRPRPMNGPRP	-0.0419
RRIRCRPPRLPRPRPRPNILPRP	-0.701
RRIRSRPPRLPRPRPRPVMQPRP	0.138
RRIRRRPPRLPRPRPRPCNYPRP	0.159
RRIRSRPPRLPRPRPRPYFMPRP	-0.848

Reference: the supplement of paper PMC9112550, “Optimization of the antimicrobial peptide Bac7 by deep mutational scanning” (BMC Biology, 2022)
